Reference: doi:10.1101/430835 (bioRxiv, 2019)
Several values for one entry are separate records, joined by “and”; a condition that tells them apart may be missing. Equal entries are not always repeated.

Target: the molecule itself
Experiment: native gel or EMSA

Protein	stoichiometry N
Uncoupling protein 2 (UCP2) (natural protein, human, UniProt P55851 1-309, looked up) MVGFKATDVPPTATVKFLGAGTAACIADLITFPLDTAKVRLQIQGESQGPVRATASAQYRGVMGTILTMVRTEGPRSLYNGLVAGLQRQMSFASVRIGLYDSVKQFYTKGSEHASIGSRLLAGSTTGALAVAVAQPTDVVKVRFQAQARAGGGRRYQSTVNAYKTIAREEGFRGLWKGTSPNVARNAIVNCAELVTYDLIKDALLKANLMTDDLPCHFTSAFGAGFCTTVIASPVDVVKTRYMNSALGQYSSAGHCALTMLQKEGPRAFYKGFMPSFLRLGSWNVVMFVTYEQLKRALMAACTSREAPF	2 and 4
bovine ADP/ATP carrier protein isoform 1 (AAC1) (natural protein) SDQALSFLKDFLAGGVAAAISKTAVAPIERVKLLLQVQHASKQISAEKQYKGIIDCVVRIPKEQGFLSFWRGNLANVIRYFPTQALNFAFKDKYKQIFLGGVDRHKQFWRYFAGNLASGGAAGATSLCFVYPLDFARTRLAADVGKGAAQREFTGLGNCITKIFKSDGLRGLYQGFNVSVQGIIIYRAAYFGVYDTAKGMLPDPKNVHIIVSWMIAQTVTAVAGLVSYPFDTVRRRMMMQSGRKGADIMYTGTVDCWRKIAKDEGPKAFFKGAWSNVLRGMGGAFVLVLYDEIKKFV	2
